B1: LINE1-mini (parent)
chain: GGCAGAGCUCAACACAGCGUGGCAAAGUGGCUGUGGCUAGACUGCC

Variants of: B1
Assay: self-cleavage, relative activity (ratio to wild type); higher = more cleavage; in vitro, sequencing; the parent is a self-cleaving ribozyme

Variant | self-cleavage
GGCAGAGCUCAACACAUCGUGGCAAAGUGUCUGUGGCUAGACUGCC | 0.16
GGCAGAGCUCAACACAGCGUAGCAAAGUGGCCGUGGCUAGACUGCC | 0.48
GGCAGAGCUCCACAAAGCGUGGCAAAGUGGCUGUGGCUAGACUGCC | 0.02
GGCAGAGCACAACACAGCGUGGCAAAAUGGCUGUGGCUAGACUGCC | 0.1
GGCAGAGGUCAACACAGCGUGGCAAAGUGGCUGUGGCAAGACUGCC | 0.06
GGCAGAGCUCAACACAGCGCGGCAAAAUGGCUGUGGCUAGACUGCC | 0.78
GGCAGAGCUCAAUACAGCGUGGUAAAGUGGCUGUGGCUAGACUGCC | 0.22
GGCAGAGCUCAACACAGCGUGGCAAAGUAGCUGUGGCUAUACUGCC | 0.12
GGCAGAGCUCAACACAUCGUGGCAAAGUGGCUGUGGCUAUACUGCC | 0.06
UGCAGAGCUCAACACAUCGUGGCAAAGUGGCUGUGGCUAGACUGCC | 0.06
GGCAGAGCUCAACACAGCGUGGCAAGGUGGCUGUGGCUAGAGUGCC | 0.05
GGCCGAGCUCAACACAGCGUGGCAAAGUGGCUGUGGCUAGACCGCC | 0.08
GGCAGAGCUCAACACAGCGUGGCAAAGUGGCUAUGGCUGGACUGCC | 0.09
GGCAGAGCUCAACACAGCGUGGCAAAGUGGAUGUGCCUAGACUGCC | 0.13
GGCAGAGCUCAACACAGCGUGGCAAAGUGGCUGAGGCUCGACUGCC | 0.12
GGCAGAGCUCAACACAGCGUGGCAAAGUGGCUGUGGCAUGACUGCC | 0.85
GGCAGAGCUCAACACAGCGUGUCAAAGUGGCUGUGGCUAAACUGCC | 0.2
GGCAGAGCUCAACAAAGCGAGGCAAAGUGGCUGUGGCUAGACUGCC | 0.11
GCCAGAGCUCAACAGAGCGUGGCAAAGUGGCUGUGGCUAGACUGCC | 0.02
GGCAGAGCUCAACACAGCGUGGCAAAUUGGCUGUGGCUAGAAUGCC | 0.17
GGCAGAGCUCCACACAGCGUGGCGAAGUGGCUGUGGCUAGACUGCC | 0.06
GGCAGAGCGCAACACAGCGUGGCAAAGUGGCUGUGGCUCGACUGCC | 0.05
GGCAGAGCUCAGCACAGGGUGGCAAAGUGGCUGUGGCUAGACUGCC | 0.04

Variant | self-cleavage
GGCAGAGCUCAACACAGGGUGGCAAAGUGGCUGUGGCUAAACUGCC | 0.05
GGCAGAGCUCAACACAGCGUACCAAAGUGGCUGUGGCUAGACUGCC | 0.38
GGAAGAGCUCAACACAGCGUAGCAAAGUGGCUGUGGCUAGACUGCC | 1.23
GGCAGAGCUCUACACAGCGUGGCAAAGGGGCUGUGGCUAGACUGCC | 0.12
GGCAGAGCUCAACACAGCGUGGCAAAGUGGCCGUGGCUAGUCUGCC | 0.2
GGCAGAGCUCAACACAGCGUGGCAAAGUGGCUCUGGCUAGCCUGCC | 0.05
GGCAAAGCUCAACACAGCGUGGUAAAGUGGCUGUGGCUAGACUGCC | 0.14
GACAGAGCUCAACACAGCUUGGCAAAGUGGCUGUGGCUAGACUGCC | 0.72
GGCAGAGCUCAACACAGGGUGGCAAAGUGGCUGUGGCUAGAGUGCC | 0.04
GGCAGAGCUCAACACAGCGUGGAAAAGAGGCUGUGGCUAGACUGCC | 0.78
GGCAGAGCUCAACACAACGUGGCAAAGCGGCUGUGGCUAGACUGCC | 0.97
GGCAGAGCUCAACACAGCGUGGCAAAGUGGAUGUUGCUAGACUGCC | 0.06
GGCAGAGCACAACACAGAGUGGCAAAGUGGCUGUGGCUAGACUGCC | 0.1
GGCAGAGCUCAACACAGCGUGCCAAAGUGGUUGUGGCUAGACUGCC | 0.26
GGCAGAGCUCAACACAGCGUGGCUAAGUGGCUGUGGCUAGACUUCC | 0.19
GGAAGAGCUCAACACAGCGUGGCCAAGUGGCUGUGGCUAGACUGCC | 0.27
GGCAGAACUCAACACAGCGUGGCAAAGUGGCUGUGGCUAGACUUCC | 0.18
GGCAGAGCUCAAGACAGCGUGGCAAAGUGGCUGUGGCUAGACUGCA | 0.28
GGCAGAGCUCAACACAGUGUGGCAAAGUGGCUGUGCCUAGACUGCC | 0.06
GGCAGAGCUCAACACAGCGUGGCAAAGUGGCUGUGGCAAGAAUGCC | 0.1
GGCAGAGCUCAACACGGCGUGGCAAAGUGGCUGUGGCAAGACUGCC | 0.4
GGCAGAGCUCAACACAGCGUGGCAAAGUCGCUGUGACUAGACUGCC | 0.02
GGCAGAGCUCAACACAGCGUGGCAAAGUCGCUGUGUCUAGACUGCC | 0.04

Variant | self-cleavage
GGCAGAGCUCAACACAGCGUGGCCAAGUGGCUGUGGGUAGACUGCC | 0.02
GGCAGUGCUCAACACAGCGUGGCAAAGUGGCUGUGGCUAGACAGCC | 0.13
GGCAGAGCUCAUCACAGCGUGGCAAAGUGGCUGUGGAUAGACUGCC | 0.05
GGUAGAGCUCAACACAGCGUGGCAAAGUGGCUGUGGGUAGACUGCC | 0.05
GGCAGAGCGCAACACUGCGUGGCAAAGUGGCUGUGGCUAGACUGCC | 0.14
GGCAGAGCUCAACUCAGCGUGGCAAAGUGGCUGUGGCUAGACUGGC | 0.07
GGCAGAGCUCAACACAGCGUGGCAAAGUGCCUGUGGCUAGACUGCG | 0.59
GGAAGAGCUCAAAACAGCGUGGCAAAGUGGCUGUGGCUAGACUGCC | 0.25
GGCAGAGCUCAACACAGCGUGGCAAAGUGGCUGUGCCUGGACUGCC | 0.07
GGCAGAGCUCAAGACAGCGUGGCAAAGUGGCUGUAGCUAGACUGCC | 0.07
GGCAGAGCUCAACACAGCGUGGCAAAGUGGGAGUGGCUAGACUGCC | 0.05
GGCGGAGCUCAACAAAGCGUGGCAAAGUGGCUGUGGCUAGACUGCC | 0.08
GGCAGAGCUCAACACACCGUGGGAAAGUGGCUGUGGCUAGACUGCC | 1.22
GGCAGACCUCAACACAGCGUGGCAAAGUGGCUAUGGCUAGACUGCC | 0.06
GGCAGAGCUCAACACAGCGUGGCAAAGUGGCUUUGGUUAGACUGCC | 0.06
GGCAGAUCUCAACACAGCUUGGCAAAGUGGCUGUGGCUAGACUGCC | 0.05
GGCAGAGCUCAACACAACGUGGCAAAGUGGGUGUGGCUAGACUGCC | 0.08
GGCUGAGCUCAACACAGCGUGGCAAAGUCGCUGUGGCUAGACUGCC | 0.24
GGCAGAGCUCAACUCAGCGUGGCAAAGUGGCUGUGUCUAGACUGCC | 0.24
GGCAGAGCUGAACACAGCGUGGCAAAGUGGCUGUGGCUACACUGCC | 0.02
GGCAGAGCUCAACCUAGCGUGGCAAAGUGGCUGUGGCUAGACUGCC | 0.07
GCCAGAGCUCAACACAGAGUGGCAAAGUGGCUGUGGCUAGACUGCC | 0.06
GGCAGAGUUCAACACAGCGUGGCAAAGUGGCUGUGGCUAGACUCCC | 0.08

Variant | self-cleavage
GGCAGAGCUCAACACAGCGUGGCAAAGUGCUUGUGGCUAGACUGCC | 1.32
GGCAGGGCUCAACCCAGCGUGGCAAAGUGGCUGUGGCUAGACUGCC | 0.14
GGCAGAGCUCAACACAGAGCGGCAAAGUGGCUGUGGCUAGACUGCC | 0.31
GGCAGAGCUCAACACAGCGUGGCAAAGUGGAUGUGGCUAGACUUCC | 0.04
GGCAGAGCUCAACACAGCGUGGCAAAGUGGCUGUUGCUGGACUGCC | 0.22
GGCAGAGCUCAACACAGCGUGGAAAAGUGGCUGUGGUUAGACUGCC | 0.03
GGCAAAGCUCAACACAGCGUGGCAAAGUGGCUGUGGCUAGAAUGCC | 0.13
GGCAGAGCUCAACCCAGCGUGGCAAAGAGGCUGUGGCUAGACUGCC | 0.03
GGCAGAGCUCAACACAGCCUGACAAAGUGGCUGUGGCUAGACUGCC | 0.39
GGCAGAUCUCAACACAGCGUGGCAAAGUGGCUGUGGAUAGACUGCC | 0.05
GGCACAGCUCAACACAGCGUGGCCAAGUGGCUGUGGCUAGACUGCC | 0.04
CGCAGAGCUCAACACAGCGUGGCAAAGUGGCUGUGGCUAGAAUGCC | 0.02
GGCAGAGCUCAACACAGCCUGGCAAAGUGGCUGUGGCUAUACUGCC | 0.08
GGCAGAGCUCAACACAGCGUGGCAAAGUGGCUGUGGCUCGGCUGCC | 0.1
GGCAGAGCUCAAGACAGCAUGGCAAAGUGGCUGUGGCUAGACUGCC | 0.2
GGCAGAGCUCAGCACAGCGUGGCAAAGUGGGUGUGGCUAGACUGCC | 0.04
GGGAGAGCUCAACACAGCGUGGCAAACUGGCUGUGGCUAGACUGCC | 0.13
UGCAGAGCUUAACACAGCGUGGCAAAGUGGCUGUGGCUAGACUGCC | 0.08
GGCAGAGCUCAACACAGAGUGGCAAAGUUGCUGUGGCUAGACUGCC | 1.07
GGCAGAGCUCAACACAGCGUGGCCAAGUGACUGUGGCUAGACUGCC | 0.71
GGCAGAGCUAAACACAGCGUGGUAAAGUGGCUGUGGCUAGACUGCC | 0.06
GGCAGAGCUCAACACAGCGUGGCGAAGUGGCUGUAGCUAGACUGCC | 0.12
GGCAGAGCUCAACGCAGCGUGGCAAAGUGGCUGUGGCUAUACUGCC | 0.12

Variant | self-cleavage
GGCAGAGCUCAACACAGCGUGGCAAUGUGGCUGAGGCUAGACUGCC | 0.07
GGCAGAGCUCAACACAGCGUGACACAGUGGCUGUGGCUAGACUGCC | 0.8
GGCGGAGCUCAACACAGCGUGGCAAAGUCGCUGUGGCUAGACUGCC | 0.12
GGCAGAGCUAAACACUGCGUGGCAAAGUGGCUGUGGCUAGACUGCC | 0.05
CGCAGAGCUCAACACAGGGUGGCAAAGUGGCUGUGGCUAGACUGCC | 0.03
GGCAGAGCUCCACACAGCAUGGCAAAGUGGCUGUGGCUAGACUGCC | 0.05
GGCAGAGCUCUACACAGCGUGUCAAAGUGGCUGUGGCUAGACUGCC | 0.15
GGCAGGGCUCAACACAGCGUGGCAAAGUGGCUGUGGCUAGACUUCC | 0.13
GGCAGAGCUCAACACAGCGUGGCAAAGUGGCUGUGCCUAGACUGCA | 0.13
GUCAGAGCUCAACACAGCGUGGCACAGUGGCUGUGGCUAGACUGCC | 0.05
GGCGGAGCUCAACACAGCGCGGCAAAGUGGCUGUGGCUAGACUGCC | 0.48
GGCAGAGCUCCACACAGCGUGGCAAAGUGGCUCUGGCUAGACUGCC | 0.02
GGCAGAGCUCAACACAGCGUGGCAAACUGACUGUGGCUAGACUGCC | 1.2
GGCAGAGCUCAACACAGCGUGGCAAACUGUCUGUGGCUAGACUGCC | 1.72
GGCAGAGCUCAACGCAGCGUGGCAAAGUGGCUGAGGCUAGACUGCC | 0.16
GGCAGAGCUCAACACAGCGUGGCGAAGUGUCUGUGGCUAGACUGCC | 2.49
GGCAGAGCUCAACACAGAGUGGCAAAGUGGCUGUGGCUUGACUGCC | 0.76
GGCAGAGCUCAAAACAGGGUGGCAAAGUGGCUGUGGCUAGACUGCC | 0.12
GGCAGAGCUCAACACAGCGUGGCAAAGUGGCAUUGGCUAGACUGCC | 0.07
GGGAGAGCUCAACACAGAGUGGCAAAGUGGCUGUGGCUAGACUGCC | 0.17

Source: the RNAGym collection of RNA variant scans (doi:10.7554/elife.90254)
